Legend:
[1] = target: T1, human CD45 on cells (PBMC, whole blood cells, macrophages, leukaemia and lymphoma cell lines) (human, UniProt P08575 26-1306); assay: cell-based or functional assay
T1 sequence: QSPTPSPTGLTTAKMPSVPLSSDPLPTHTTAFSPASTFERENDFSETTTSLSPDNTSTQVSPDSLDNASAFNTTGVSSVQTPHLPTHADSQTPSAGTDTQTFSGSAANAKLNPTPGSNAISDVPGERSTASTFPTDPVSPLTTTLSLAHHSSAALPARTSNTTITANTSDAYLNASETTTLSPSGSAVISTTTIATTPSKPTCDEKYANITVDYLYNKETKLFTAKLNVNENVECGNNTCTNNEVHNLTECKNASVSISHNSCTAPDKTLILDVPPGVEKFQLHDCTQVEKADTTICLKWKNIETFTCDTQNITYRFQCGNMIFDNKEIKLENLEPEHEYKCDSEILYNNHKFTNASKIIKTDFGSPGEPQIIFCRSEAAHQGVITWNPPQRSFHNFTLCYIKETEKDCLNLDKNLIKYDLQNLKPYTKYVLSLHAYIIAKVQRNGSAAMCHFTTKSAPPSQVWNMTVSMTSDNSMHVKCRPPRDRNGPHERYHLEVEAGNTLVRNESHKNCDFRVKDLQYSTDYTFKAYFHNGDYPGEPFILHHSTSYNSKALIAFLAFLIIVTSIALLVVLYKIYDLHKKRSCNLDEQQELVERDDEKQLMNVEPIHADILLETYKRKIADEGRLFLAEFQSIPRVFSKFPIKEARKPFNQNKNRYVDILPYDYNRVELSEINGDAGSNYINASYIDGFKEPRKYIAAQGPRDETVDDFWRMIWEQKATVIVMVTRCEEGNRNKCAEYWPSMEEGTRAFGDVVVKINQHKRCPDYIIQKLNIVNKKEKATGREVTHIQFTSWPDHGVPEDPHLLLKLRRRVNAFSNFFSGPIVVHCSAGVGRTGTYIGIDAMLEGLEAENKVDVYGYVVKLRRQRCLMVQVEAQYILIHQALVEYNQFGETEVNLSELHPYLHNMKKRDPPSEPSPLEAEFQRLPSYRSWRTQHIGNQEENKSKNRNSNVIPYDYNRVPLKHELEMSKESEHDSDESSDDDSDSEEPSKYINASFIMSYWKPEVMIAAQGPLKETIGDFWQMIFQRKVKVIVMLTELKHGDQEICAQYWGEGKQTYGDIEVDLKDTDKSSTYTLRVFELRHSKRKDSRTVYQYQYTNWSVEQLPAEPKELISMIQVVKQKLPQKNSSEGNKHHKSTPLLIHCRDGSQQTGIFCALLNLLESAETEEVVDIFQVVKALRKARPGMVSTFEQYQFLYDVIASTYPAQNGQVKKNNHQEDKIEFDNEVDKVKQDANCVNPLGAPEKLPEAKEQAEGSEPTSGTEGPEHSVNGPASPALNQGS

[2] = target: T1, human CD45 on cells (PBMC, whole blood …); assay: cell-based or functional assay; remark: listed apart in the source
[3] = target: T1, human CD45 on cells (PBMC, whole blood …); assay: cell-based or functional assay; remark: listed apart in the source
[4] = target: T1, human CD45 on cells (PBMC, whole blood …); assay: cell-based or functional assay; remark: listed apart in the source
[5] = target: T2, CD45 domains 1-4 of the extracellular domain (UniProtKB P08575, residues 225-573) with C-terminal TEV cleavage site and 10-His tag (human); assay: sedimentation velocity analytical ultracentrifugation, molar 1:1 mixture of CD45 ECD and BYbe
[6] = target: T2, CD45 domains 1-4 of the extracellular domain; assay: mass photometry of the mixture of CD45 ECD and 4133-6294 BYbe, not pre-incubated [C]
[7] = target: T2, CD45 domains 1-4 of the extracellular domain; assay: mass of the peaks seen in the mixture of CD45 ECD and 4133-6294 BYbe in solution; theoretical mass 138 kDa
[8] = target: T2, CD45 domains 1-4 of the extracellular domain; assay: mass of the peaks seen in the mixture of CD45 ECD and 4133-6294 BYbe in solution; theoretical mass 276 kDa
[9] = target: T2, CD45 domains 1-4 of the extracellular domain; assay: mass of the peaks seen in the mixture of CD45 ECD and 4133-6294 BYbe in solution; theoretical mass 414 kDa
[10] = target: T2, CD45 domains 1-4 of the extracellular domain; assay: mass of the peaks seen in the mixture of CD45 ECD and 4133-6294 BYbe in solution; theoretical mass 552 kDa
[11] = target: T2, CD45 domains 1-4 of the extracellular domain; assay: sedimentation peaks of the mixture of CD45 ECD and 4133-6294 BYbe; stoichiometry assigned from modelled S values

B1: 4133-6294 BYbe (bispecific antibody)
heavy: QEQLVESGGGLVQPEGSLTLTCTASGFSFSGNYYMCWVRQAPGKGLEWIGCLYTGSSGSTYYASWAKGRFTISKTSSTTVTLQMTSLTAADTATYFCARDLGYEIDGYGGLWGQGTLVTVSSGQPKAPSVFPLAPCCGDTPSSTVTLGCLVKGYLPEPVTVTWNSGTLTNGVRTFPSVRQSSGLYSLSSVVSVTSSSQPVTCNVAHPATNTKVDKTVAPSTCSKPGGGGSGGGGSEVQLVESGAELARPGASVKMSCKASGYTFTSYTMHWVKQRPGQCLEWIGYINPSSGYTEYNQKFKDKTTLTADKSSSTAYLQLSSLTSEDSAVYYCARVGDGFYPSWLAYWGQGTLVTVSSGGGGSGGGGSGGGGSGGGGSDIQMTQSPKFLLVSAGDRVTITCKASQSVRNDVAWYQQKPGQSPKLLIFYASKRYTGVPDRFTGSGYGTDFTFTISTVQAEDLAVYFCQQDYSSPTTFGCGTKLEIK
light: AQVLTQTPSPVSAVVGGTVSISCQASQSVYNNNNLSWYQQKPGQPPKLLIYDASKLASGVPSRFKGSGSGTQFTLTISGVQCDDAATYYCLGGYYSSGWYFAFGGGTKVVVKRTPVAPTVLIFPPAADQVATGTVTIVCVANKYFPDVTVTWEVDGTTQTTGIENSKTPQNSADCTYNLSSTLTLTSTQYNSHKEYTCKVTQGTTSVVQSFNRGDC
Question: With B1 as the binder, how does the “EC50 of reduction of lymphocytes in PBMC, 24 h (UCB Cone-802)” value [1] read?
Answer: The value was 0.15 nM.

Question: What about the “EC50 of reduction of lymphocytes in PBMC, 24 h (UCB Cone-811)” value [1] of the same binder?
Answer: The value was 0.1 nM.

Question: And the “EC50 of subset cell reduction, B cells in PBMC, 24 h” value [2]?
Answer: Its value is 1.5 nM.

Question: And the “EC50 of subset cell reduction, CD4+ Memory cells in PBMC, 24 h” value [2]?
Answer: The value was 0.222 nM.

Question: What about the “EC50 of subset cell reduction, CD4+ Naive cells in PBMC, 24 h” value [2] of the same binder?
Answer: The value was 0.524 nM.

Question: What about the “EC50 of subset cell reduction, CD4+ cells in PBMC, 24 h” value [2] of the same binder?
Answer: The value was 0.302 nM.

Question: What about the “EC50 of subset cell reduction, CD8+ cells in PBMC, 24 h” value [2] of the same binder?
Answer: Its value is 0.187 nM.

Question: What about the “EC50 of reduction, CD4+ cells in whole blood, 5 h, Donor 1” value [3] of the same binder?
Answer: Its value is 0.25 nM.

Question: And the “EC50 of reduction, CD4+ cells in whole blood, 5 h, Donor 2” value [3]?
Answer: Its value is 0.33 nM.

Question: And the “EC50 of reduction, total lymphocytes in whole blood, 5 h, Donor 1” value [3]?
Answer: Its value is 0.37 nM.

Question: What about the “EC50 of reduction, total lymphocytes in whole blood, 5 h, Donor 2” value [3] of the same binder?
Answer: Its value is 5.99 nM.

Question: And the “EC50 of % cell reduction, CCRF-SB cells, 21 h” value [4]?
Answer: Its value is 0.308 nM.

Question: And the “EC50 of % cell reduction, Dakiki cells, 21 h” value [4]?
Answer: The value was 0.309 nM.

Question: And the “EC50 of % cell reduction, Jurkat cells, 21 h” value [4]?
Answer: Its value is 0.117 nM.

Question: What about the “EC50 of % cell reduction, MC116 cells, 21 h” value [4] of the same binder?
Answer: The value was 0.005 nM.

Question: What about the “EC50 of % cell reduction, NU-DUL-1 cells, 21 h” value [4] of the same binder?
Answer: The value was 0.497 nM.

Question: And the “EC50 of % cell reduction, OCI-Ly3 cells, 21 h” value [4]?
Answer: The value was 0.349 nM.

Question: And the “EC50 of % cell reduction, Raji cells, 21 h” value [4]?
Answer: Its value is 0.397 nM.

Question: And the “EC50 of % cell reduction, Ramos cells, 21 h” value [4]?
Answer: Its value is 0.14 nM.

Question: What about the “EC50 of % cell reduction, SU-DHL-4 cells, 21 h” value [4] of the same binder?
Answer: The value was 0.141 nM.

Question: And the “EC50 of % cell reduction, SU-DHL-5 cells, 21 h” value [4]?
Answer: Its value is 0.043 nM.

Question: And the “EC50 of % cell reduction, SU-DHL-8 cells, 21 h” value [4]?
Answer: Its value is 1.46 nM.

Question: What about the “EC50 of % cell reduction, THP-1 cells, 21 h” value [4] of the same binder?
Answer: The value was 1.54 nM.

Question: And the Percentage of area under the curve (CD45 1:1 BYbe complex) [5]?
Answer: The Percentage of area under the curve (CD45 1:1 BYbe complex) was 12%.

Question: And the Percentage of area under the curve (CD45 2:2 BYbe complex) [5]?
Answer: The Percentage of area under the curve (CD45 2:2 BYbe complex) was 37.7%.

Question: What about the Percentage of area under the curve (CD45 3:3 BYbe complex) [5] of the same binder?
Answer: Its Percentage of area under the curve (CD45 3:3 BYbe complex) is 35.7%.

Question: What about the Percentage of area under the curve (CD45 4:4 BYbe complex) [5] of the same binder?
Answer: The Percentage of area under the curve (CD45 4:4 BYbe complex) was 3.46%.

Question: And the Percentage of area under the curve (unbound CD45 in the 1:1 mixture) [5]?
Answer: Its Percentage of area under the curve (unbound CD45 in the 1:1 mixture) is 9.21%.

Question: And the counts in the peak at 75 kDa (arrow from the BYbe schematic; unbound BYbe according to the text) [6]?
Answer: Its counts in the peak at 75 kDa (arrow from the BYbe schematic; unbound BYbe according to the text) is 3830 counts.

Question: And the counts in the peak at 136 kDa, complex marked (1x) [6]?
Answer: The counts in the peak at 136 kDa, complex marked (1x) was 3060 counts.

Question: And the counts in the peak at 274 kDa, complex marked (2x) [6]?
Answer: Its counts in the peak at 274 kDa, complex marked (2x) is 3510 counts.

Question: What about the counts in the peak at 415 kDa, complex marked (3x) [6] of the same binder?
Answer: The counts in the peak at 415 kDa, complex marked (3x) was 464 counts.

Question: And the counts in the peak at 555 kDa, complex marked (4x) [6]?
Answer: Its counts in the peak at 555 kDa, complex marked (4x) is 137 counts.

Question: What about the percent of counts in the peak at 75 kDa (arrow from the BYbe schematic; unbound BYbe according to the text) [6] of the same binder?
Answer: Its percent of counts in the peak at 75 kDa (arrow from the BYbe schematic; unbound BYbe according to the text) is 31%.

Question: What about the percent of counts in the peak at 136 kDa, complex marked (1x) [6] of the same binder?
Answer: The percent of counts in the peak at 136 kDa, complex marked (1x) was 24%.

Question: What about the percent of counts in the peak at 274 kDa, complex marked (2x) [6] of the same binder?
Answer: Its percent of counts in the peak at 274 kDa, complex marked (2x) is 28%.

Question: What about the percent of counts in the peak at 415 kDa, complex marked (3x) [6] of the same binder?
Answer: Its percent of counts in the peak at 415 kDa, complex marked (3x) is 4%.

Question: And the percent of counts in the peak at 555 kDa, complex marked (4x) [6]?
Answer: Its percent of counts in the peak at 555 kDa, complex marked (4x) is 1%.

Question: What about the observed mass of the complex 1× (CD45 + BYbe) [7] of the same binder?
Answer: Its observed mass of the complex 1× (CD45 + BYbe) is 136 kDa.

Question: And the observed mass of the complex 2× (CD45 + BYbe) [8]?
Answer: The observed mass of the complex 2× (CD45 + BYbe) was 274 kDa.

Question: What about the observed mass of the complex 3× (CD45 + BYbe) [9] of the same binder?
Answer: The observed mass of the complex 3× (CD45 + BYbe) was 415 kDa.

Question: What about the observed mass of the complex 4× (CD45 + BYbe) [10] of the same binder?
Answer: Its observed mass of the complex 4× (CD45 + BYbe) is 555 kDa.

Question: And the experimental S value of the complex CD45 1:1 BYbe [11]?
Answer: The experimental S value of the complex CD45 1:1 BYbe was 6.9 S.

Question: What about the experimental S value of the complex CD45 2:1 BYbe [11] of the same binder?
Answer: Its experimental S value of the complex CD45 2:1 BYbe is 7.15 S.

Question: And the experimental S value of the complex CD45 2:2 BYbe [11]?
Answer: Its experimental S value of the complex CD45 2:2 BYbe is 8.78 S.

Question: And the experimental S value of the complex CD45 3:3 BYbe [11]?
Answer: The experimental S value of the complex CD45 3:3 BYbe was 10 S.

Question: What about the experimental S value of the complex CD45 4:3 BYbe [11] of the same binder?
Answer: Its experimental S value of the complex CD45 4:3 BYbe is 11.1 S.

Question: What about the experimental S value of the complex CD45 4:4 BYbe [11] of the same binder?
Answer: Its experimental S value of the complex CD45 4:4 BYbe is 13.3 S.

— patent publication US20230374148A1, “BINDING MOLECULES THAT MULTIMERISE CD45” (UCB BIOPHARMA SRL, priority 2020, published 2023)
